{"source": "paper PMC10897365", "about": "“Molecular mechanism of allosteric activation of the CRISPR ribonuclease Csm6 by cyclic tetra-adenylate” (The EMBO Journal, 2023)", "key": {"[1]": {"target": "T1, TtCsm6 (Thermus thermophilus, UniProt Q53W17)", "T1 construct": "gene csm6; synthesized gene, N-terminal 6xHis tag removed with PreScission protease; expressed in E. coli Rosetta (DE3); homodimer; CARF-HTH-HEPN", "T1 sequence (Q53W17 1-464)": "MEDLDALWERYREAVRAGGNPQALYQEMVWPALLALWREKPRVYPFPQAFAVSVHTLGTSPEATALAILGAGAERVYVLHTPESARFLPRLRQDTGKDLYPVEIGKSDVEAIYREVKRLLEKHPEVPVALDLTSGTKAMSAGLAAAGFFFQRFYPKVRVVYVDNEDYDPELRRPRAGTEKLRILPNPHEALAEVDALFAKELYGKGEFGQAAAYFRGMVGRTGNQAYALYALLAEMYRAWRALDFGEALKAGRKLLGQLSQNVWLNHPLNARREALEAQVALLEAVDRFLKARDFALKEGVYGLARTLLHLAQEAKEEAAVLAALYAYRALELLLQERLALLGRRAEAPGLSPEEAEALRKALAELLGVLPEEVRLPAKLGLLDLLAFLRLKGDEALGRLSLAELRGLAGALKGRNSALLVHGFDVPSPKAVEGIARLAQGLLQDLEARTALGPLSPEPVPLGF", "assay": "crystal structure […] Å (co-crystallised with cA4)", "format": "binding", "details": "post-cleavage state; two A2>P across the CARF dimer interface; pH 8.5, Mg2+ in crystal"}, "[2]": {"target": "the molecule itself", "assay": "crystal structure; TtCsm6 (12 mg/mL) pre-incubated with cA4 1:1.2 for 3 h at room temperature; hanging drop, 25 °C; post-cleavage state with two A2>P bound; homodimer"}, "[3]": {"target": "the molecule itself", "assay": "crystal structure; TtCsm6 K137A (13 mg/mL) alone; hanging drop, 25 °C; apo state, no metal ion in the HEPN domain; homodimer"}, "[4]": {"target": "the molecule itself", "assay": "crystal structure; TtCsm6 Y161A (10 mg/ml) pre-incubated with cA4 1:1.2 at 4 °C for 30 min; hanging drop, 25 °C; pre-cleavage state with cA4 bound; homodimer"}}}
{"molecule": "Nc1ncnc2c1ncn2[C@@H]1O[C@H](CO)[C@@H](OP(=O)(O)OC[C@H]2O[C@@H](n3cnc4c(N)ncnc43)[C@@H]3OP(=O)(O)O[C@@H]32)[C@H]1O", "note": "[A2 > P]", "values": [{"measurement": "crystal structure 1.81 Å (co-crystallised with cA4)", "setting": "[1]", "value": "cA4 in the CARF domain was cleaved into two A2 > P molecules"}]}
{"molecule": "Thermus thermophilus (Tt) Csm6, wild type (enzyme, Csm6 of Thermus thermophilus, GenBank ID 81626039; synthesized cDNA in a modified pET vector; Crystallised after pre-incubation with cA4, which was cleaved to two A2>P in the crystal (post-cleavage state); Homodimer in the crystal; also called WT; source: E. coli Rosetta (DE3), purified (Ni-NTA, 15Q, Superdex 200); not shown: His6, N-terminal, cleaved) MEDLDALWERYREAVRAGGNPQALYQEMVWPALLALWREKPRVYPFPQAFAVSVHTLGTSPEATALAILGAGAERVYVLHTPESARFLPRLRQDTGKDLYPVEIGKSDVEAIYREVKRLLEKHPEVPVALDLTSGTKAMSAGLAAAGFFFQRFYPKVRVVYVDNEDYDPELRRPRAGTEKLRILPNPHEALAEVDALFAKELYGKGEFGQAAAYFRGMVGRTGNQAYALYALLAEMYRAWRALDFGEALKAGRKLLGQLSQNVWLNHPLNARREALEAQVALLEAVDRFLKARDFALKEGVYGLARTLLHLAQEAKEEAAVLAALYAYRALELLLQERLALLGRRAEAPGLSPEEAEALRKALAELLGVLPEEVRLPAKLGLLDLLAFLRLKGDEALGRLSLAELRGLAGALKGRNSALLVHGFDVPSPKAVEGIARLAQGLLQDLEARTALGPLSPEPVPLGF", "values": [{"measurement": "binding result", "setting": "[2]", "value": "binds"}]}
{"molecule": "TtCsm6 K137A mutant (enzyme, Thermus thermophilus, Csm6 of Thermus thermophilus, GenBank ID 81626039, with K137A; Homodimer in the crystal; also called apo-TtCsm6 (Ni-free structure); source: E. coli Rosetta (DE3), purified (Ni-NTA, 15Q, Superdex 200); not shown: His6, N-terminal, cleaved) MEDLDALWERYREAVRAGGNPQALYQEMVWPALLALWREKPRVYPFPQAFAVSVHTLGTSPEATALAILGAGAERVYVLHTPESARFLPRLRQDTGKDLYPVEIGKSDVEAIYREVKRLLEKHPEVPVALDLTSGTAAMSAGLAAAGFFFQRFYPKVRVVYVDNEDYDPELRRPRAGTEKLRILPNPHEALAEVDALFAKELYGKGEFGQAAAYFRGMVGRTGNQAYALYALLAEMYRAWRALDFGEALKAGRKLLGQLSQNVWLNHPLNARREALEAQVALLEAVDRFLKARDFALKEGVYGLARTLLHLAQEAKEEAAVLAALYAYRALELLLQERLALLGRRAEAPGLSPEEAEALRKALAELLGVLPEEVRLPAKLGLLDLLAFLRLKGDEALGRLSLAELRGLAGALKGRNSALLVHGFDVPSPKAVEGIARLAQGLLQDLEARTALGPLSPEPVPLGF", "values": [{"measurement": "binding result", "setting": "[3]", "value": "binds"}]}
{"molecule": "TtCsm6 Y161A mutant (enzyme, Thermus thermophilus, Csm6 of Thermus thermophilus, GenBank ID 81626039, with Y161A; Crystallised with uncleaved cA4 (pre-cleavage state); Homodimer in the crystal; source: E. coli Rosetta (DE3), purified (Ni-NTA, 15Q, Superdex 200); not shown: His6, N-terminal, cleaved) MEDLDALWERYREAVRAGGNPQALYQEMVWPALLALWREKPRVYPFPQAFAVSVHTLGTSPEATALAILGAGAERVYVLHTPESARFLPRLRQDTGKDLYPVEIGKSDVEAIYREVKRLLEKHPEVPVALDLTSGTKAMSAGLAAAGFFFQRFYPKVRVVAVDNEDYDPELRRPRAGTEKLRILPNPHEALAEVDALFAKELYGKGEFGQAAAYFRGMVGRTGNQAYALYALLAEMYRAWRALDFGEALKAGRKLLGQLSQNVWLNHPLNARREALEAQVALLEAVDRFLKARDFALKEGVYGLARTLLHLAQEAKEEAAVLAALYAYRALELLLQERLALLGRRAEAPGLSPEEAEALRKALAELLGVLPEEVRLPAKLGLLDLLAFLRLKGDEALGRLSLAELRGLAGALKGRNSALLVHGFDVPSPKAVEGIARLAQGLLQDLEARTALGPLSPEPVPLGF", "values": [{"measurement": "binding result", "setting": "[4]", "value": "binds"}]}
